The source of these data is the supplement of paper PMC10567573.

First the molecules themselves.
B1: ZBED1 (parent)
chain: EQVFSLGDGVSGGFFGIRDSSFL
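Note: lentivirally expressed fusions sorted by FACS into six bins by GFP to DsRed ratio, PSI derived from sequencing read proportions per bin multiplied by bin number.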

In this data set the parent is B1. Put plainly: protein stability index of a GFP-peptide fusion (GPS, HEK-293T) (PSI 1-6); higher = more stable. To be noted: c terminus: native.
For EQVFSIGDGVSGGFFGIRDSSFL [L6I], the protein stability index turned out to be 3.14.
For the variant EQVFSTGDGVSGGFFGIRDSSFL [L6T], the protein stability index worked out at 3.27.
EQVFSKGDGVSGGFFGIRDSSFL [L6K]: the protein stability index is 3.86.
With EQVFSVGDGVSGGFFGIRDSSFL [L6V] the figure was 3.08; with EQVFSSGDGVSGGFFGIRDSSFL [L6S], 4.12; with EQVFSWGDGVSGGFFGIRDSSFL [L6W], 3.01.
Then EQVFSCGDGVSGGFFGIRDSSFL [L6C], with 3.76.
With EQVFSEGDGVSGGFFGIRDSSFL [L6E] the figure was 4.69; with EQVFSHGDGVSGGFFGIRDSSFL [L6H], 3.97; with EQVFSPGDGVSGGFFGIRDSSFL [L6P], 3.96.
Turning to EQVFSGGDGVSGGFFGIRDSSFL [L6G], the protein stability index worked out at 4.31.
Then EQVFSNGDGVSGGFFGIRDSSFL [L6N], with 3.4.
Regarding EQVFSMGDGVSGGFFGIRDSSFL [L6M], the protein stability index was 3.2.
On to EQVFSDGDGVSGGFFGIRDSSFL [L6D], for which the protein stability index was found to be 3.73.
On to EQVFSAGDGVSGGFFGIRDSSFL [L6A], for which the protein stability index was 3.92.
Then EQVFSQGDGVSGGFFGIRDSSFL [L6Q], with 3.5; and EQVFSFGDGVSGGFFGIRDSSFL [L6F], with 3.22; and EQVFSRGDGVSGGFFGIRDSSFL [L6R], with 4.26.
For EQVFSYGDGVSGGFFGIRDSSFL [L6Y], the protein stability index worked out at 3.42.
Then EQVFTLGDGVSGGFFGIRDSSFL [S5T], with 3.51; and EQVFLLGDGVSGGFFGIRDSSFL [S5L], with 2.24; and EQVFGLGDGVSGGFFGIRDSSFL [S5G], with 3.27.
As for EQVFNLGDGVSGGFFGIRDSSFL [S5N], the protein stability index was 3.96.
On to EQVFYLGDGVSGGFFGIRDSSFL [S5Y], for which the protein stability index is 2.63.
Then EQVFVLGDGVSGGFFGIRDSSFL [S5V], with 2.44; and EQVFPLGDGVSGGFFGIRDSSFL [S5P], with 3.2.
As for EQVFCLGDGVSGGFFGIRDSSFL [S5C], the protein stability index came out at 2.6.
Consider EQVFWLGDGVSGGFFGIRDSSFL [S5W], for which the protein stability index came to 1.83.
With EQVFALGDGVSGGFFGIRDSSFL [S5A], the protein stability index came to 2.98.
For EQVFKLGDGVSGGFFGIRDSSFL [S5K], the protein stability index is 3.31.
Turning to EQVFDLGDGVSGGFFGIRDSSFL [S5D], the protein stability index is 3.74.
As to EQVFHLGDGVSGGFFGIRDSSFL [S5H], the protein stability index is 3.36.
With EQVFQLGDGVSGGFFGIRDSSFL [S5Q] the figure was 3.34; with EQVFILGDGVSGGFFGIRDSSFL [S5I], 2.16; with EQVFFLGDGVSGGFFGIRDSSFL [S5F], 1.75.
With EQVFELGDGVSGGFFGIRDSSFL [S5E] the figure was 3.81; with EQVFRLGDGVSGGFFGIRDSSFL [S5R], 3.29.
As to EQVFMLGDGVSGGFFGIRDSSFL [S5M], the protein stability index was determined as 2.67.
With EQVFSLKDGVSGGFFGIRDSSFL [G7K] the figure was 3.16; with EQVFSLSDGVSGGFFGIRDSSFL [G7S], 2.94; with EQVFSLADGVSGGFFGIRDSSFL [G7A], 2.98.
Then EQVFSLLDGVSGGFFGIRDSSFL [G7L], with 2.18; and EQVFSLWDGVSGGFFGIRDSSFL [G7W], with 1.7; and EQVFSLPDGVSGGFFGIRDSSFL [G7P], with 3.51.
Then EQVFSLMDGVSGGFFGIRDSSFL [G7M], with 2.52; and EQVFSLVDGVSGGFFGIRDSSFL [G7V], with 2.19; and EQVFSLEDGVSGGFFGIRDSSFL [G7E], with 3.84.
EQVFSLDDGVSGGFFGIRDSSFL [G7D]: the protein stability index turned out to be 4.29.
Then EQVFSLIDGVSGGFFGIRDSSFL [G7I], with 1.9; and EQVFSLCDGVSGGFFGIRDSSFL [G7C], with 2.61; and EQVFSLFDGVSGGFFGIRDSSFL [G7F], with 1.99.
Consider EQVFSLQDGVSGGFFGIRDSSFL [G7Q], for which the protein stability index was 3.46.
Then EQVFSLTDGVSGGFFGIRDSSFL [G7T], with 3.23; and EQVFSLNDGVSGGFFGIRDSSFL [G7N], with 3.28.
Then EQVFSLHDGVSGGFFGIRDSSFL [G7H], with 3.34; and EQVFSLYDGVSGGFFGIRDSSFL [G7Y], with 2.34; and EQVFSLRDGVSGGFFGIRDSSFL [G7R], with 2.94.
Regarding EQVFSLGYGVSGGFFGIRDSSFL [D8Y], the protein stability index amounted to 2.01.
With EQVFSLGTGVSGGFFGIRDSSFL [D8T] the figure was 2.91.
Consider EQVFSLGMGVSGGFFGIRDSSFL [D8M], for which the protein stability index is 1.47.
Consider EQVFSLGPGVSGGFFGIRDSSFL [D8P], for which the protein stability index turned out to be 2.73.
Then EQVFSLGCGVSGGFFGIRDSSFL [D8C], with 2.07; and EQVFSLGVGVSGGFFGIRDSSFL [D8V], with 1.57.
As for EQVFSLGEGVSGGFFGIRDSSFL [D8E], the protein stability index was determined as 3.04.
With EQVFSLGWGVSGGFFGIRDSSFL [D8W] the figure was 1.91; with EQVFSLGHGVSGGFFGIRDSSFL [D8H], 2.73.
In the case of EQVFSLGRGVSGGFFGIRDSSFL [D8R], the protein stability index was 2.61.
With EQVFSLGKGVSGGFFGIRDSSFL [D8K], the protein stability index was 2.69.
With EQVFSLGGGVSGGFFGIRDSSFL [D8G] the figure was 3.24; with EQVFSLGAGVSGGFFGIRDSSFL [D8A], 2.7.
With EQVFSLGLGVSGGFFGIRDSSFL [D8L] the figure was 1.99; with EQVFSLGFGVSGGFFGIRDSSFL [D8F], 1.61.
Turning to EQVFSLGSGVSGGFFGIRDSSFL [D8S], the protein stability index came to 3.22.
As for EQVFSLGNGVSGGFFGIRDSSFL [D8N], the protein stability index was found to be 2.88.
Then EQVFSLGIGVSGGFFGIRDSSFL [D8I], with 1.41; and EQVFSLGQGVSGGFFGIRDSSFL [D8Q], with 2.73; and EQVFSLGDKVSGGFFGIRDSSFL [G9K], with 2.99.
In the case of EQVFSLGDDVSGGFFGIRDSSFL [G9D], the protein stability index is 4.
Regarding EQVFSLGDNVSGGFFGIRDSSFL [G9N], the protein stability index turned out to be 3.46.
Consider EQVFSLGDCVSGGFFGIRDSSFL [G9C], for which the protein stability index turned out to be 2.32.
With EQVFSLGDRVSGGFFGIRDSSFL [G9R] the figure was 2.86; with EQVFSLGDAVSGGFFGIRDSSFL [G9A], 3.15.
With EQVFSLGDMVSGGFFGIRDSSFL [G9M] the figure was 2.9.
For the variant EQVFSLGDPVSGGFFGIRDSSFL [G9P], the protein stability index came to 3.29.
Then EQVFSLGDIVSGGFFGIRDSSFL [G9I], with 2.47.
Then EQVFSLGDLVSGGFFGIRDSSFL [G9L], with 2.01; and EQVFSLGDEVSGGFFGIRDSSFL [G9E], with 3.25; and EQVFSLGDQVSGGFFGIRDSSFL [G9Q], with 3.16.
Then EQVFSLGDFVSGGFFGIRDSSFL [G9F], with 2.55; and EQVFSLGDHVSGGFFGIRDSSFL [G9H], with 3.48.
EQVWSLGDGVSGGFFGIRDSSFL [F4W]: the protein stability index came out at 3.08.
Take EQVVSLGDGVSGGFFGIRDSSFL [F4V]: the protein stability index came to 3.85.
Then EQVSSLGDGVSGGFFGIRDSSFL [F4S], with 4.29; and EQVYSLGDGVSGGFFGIRDSSFL [F4Y], with 3.47.
For the variant EQVTSLGDGVSGGFFGIRDSSFL [F4T], the protein stability index was determined as 3.75.
With EQVRSLGDGVSGGFFGIRDSSFL [F4R] the figure was 4.16; with EQVQSLGDGVSGGFFGIRDSSFL [F4Q], 4.12.
